From patent publication US20260097113A1 (Pfizer, published 2026)

How the values were obtained:
[1] = molecular target: RSV A + RSV B bivalent composition (RSV subtype A; RSV subtype B); test: AM14 Fab titration by SEC; composition of Table 14; Drying Temp + Ramp Aggressive cycle
[2] = molecular target: RSV A + RSV B bivalent composition (RSV subtype A; RSV subtype B); test: AM14 Fab titration by SEC; Low-Fast cycle; 8 M 25°C
[3] = molecular target: RSV A + RSV B bivalent composition (RSV subtype A; RSV subtype B); test: AM14 Fab titration by SEC; High-Slow 1 cycle; 1 M 40°C (second value)
[4] = molecular target: RSV A + RSV B bivalent composition (RSV subtype A; RSV subtype B); test: AM14 Fab titration by SEC; Low-Fast cycle; 3 M 25°C
[5] = molecular target: RSV A + RSV B bivalent composition (RSV subtype A; RSV subtype B); test: AM14 Fab titration by SEC; High-Slow 1 cycle; 8 M 2-8°C
[6] = molecular target: RSV A + RSV B bivalent composition (RSV subtype A; RSV subtype B); test: AM14 Fab titration by SEC; Low-Fast cycle; T0
[7] = molecular target: T1, RSV F protein of subtype A comprising a polypeptide of SEQ ID NO: 1 and a polypeptide of SEQ ID NO: 2 (RSV subtype A, UniProt P11209 137-513; P03420 26-109); test: AM14 ELISA; F2 (pH 8, 0 mM NaCl, 0% sucrose); 2 wk 5°C
T1 construct: Stabilized prefusion F trimer made of three F2-F1 heterodimers; Produced recombinantly in CHO cells; also called RSV A; RSVA
T1 chain 1: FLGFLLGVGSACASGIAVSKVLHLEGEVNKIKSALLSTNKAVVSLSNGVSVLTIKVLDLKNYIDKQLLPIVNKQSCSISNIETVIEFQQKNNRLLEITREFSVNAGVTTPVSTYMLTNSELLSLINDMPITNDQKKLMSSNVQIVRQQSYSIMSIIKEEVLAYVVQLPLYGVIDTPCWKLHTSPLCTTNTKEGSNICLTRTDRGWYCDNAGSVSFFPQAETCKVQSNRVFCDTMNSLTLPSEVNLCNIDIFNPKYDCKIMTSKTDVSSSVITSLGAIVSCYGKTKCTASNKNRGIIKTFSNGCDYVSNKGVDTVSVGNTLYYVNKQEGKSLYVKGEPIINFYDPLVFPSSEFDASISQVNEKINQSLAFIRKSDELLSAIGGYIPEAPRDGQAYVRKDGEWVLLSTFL
T1 chain 2: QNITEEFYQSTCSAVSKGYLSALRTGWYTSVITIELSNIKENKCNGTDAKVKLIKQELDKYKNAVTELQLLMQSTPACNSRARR

[8] = molecular target: T1, RSV F protein of subtype A comprising a …; test: AM14 ELISA; F8 (pH 7, 50 mM NaCl, 0% sucrose); 2 wk 5°C
[9] = molecular target: T1, RSV F protein of subtype A comprising a …; test: AM14 ELISA; F19 (pH 7, 50 mM NaCl, 3% trehalose + 3% mannitol); T0
[10] = molecular target: T1, RSV F protein of subtype A comprising a …; test: AM14 ELISA; F4 (pH 6, 50 mM NaCl, 4.5% sucrose); 1 wk 25°C
[11] = molecular target: T1, RSV F protein of subtype A comprising a …; test: AM14 ELISA; F9 (pH 8, 50 mM NaCl, 4.5% sucrose); 2 wk 25°C
[12] = molecular target: T1, RSV F protein of subtype A comprising a …; test: AM14 ELISA; F3 (pH 8, 0 mM NaCl, 9% sucrose); 2 wk 5°C
[13] = molecular target: T1, RSV F protein of subtype A comprising a …; test: AM14 ELISA; F3 (pH 8, 0 mM NaCl, 9% sucrose); 1 wk 5°C
[14] = molecular target: T1, RSV F protein of subtype A comprising a …; test: AM14 ELISA; F1 (pH 8, 100 mM NaCl, 0% sucrose); 1 wk 5°C
[15] = molecular target: T1, RSV F protein of subtype A comprising a …; test: AM14 ELISA; F12 (pH 8, 100 mM NaCl, 9.0% sucrose); 1 wk 5°C
[16] = molecular target: T1, RSV F protein of subtype A comprising a …; test: AM14 ELISA; F12 (pH 8, 100 mM NaCl, 9.0% sucrose); 1 wk 25°C
[17] = molecular target: T1, RSV F protein of subtype A comprising a …; test: AM14 ELISA; F7 (pH 6, 100 mM NaCl, 0% sucrose); T0

AM14 Fab gave a Prefusion Content (%) [1] of 67%, a Prefusion Content (%) [2] of 76% and a Prefusion Content (%) [3] of 46%. The Prefusion Content (%) [4] was 66%, the Prefusion Content (%) [5] was 69% and the Prefusion Content (%) [6] was 76%.

B1: AM14 (trimeric prefusion specific antibody of the AM14 ELISA) (antibody, V domains shown)
VH: EVQLVESGGGVVQPGRSLRLSCAASGFSFSHYAMHWVRQAPGKGLEWVAVISYDGENTYYADSVKGRFSISRDNSKNTVSLQMNSLRPEDTALYYCARDRIVDDYYYYGMDVWGQGATVTVSS
VL: DIQMTQSPSSLSASVGDRVTITCQASQDIKKYLNWYHQKPGKVPELLMHDASNLETGVPSRFSGRGSGTDFTLTISSLQPEDIGTYYCQQYDNLPPLTFGGGTKVEIKR
notes: Antibody as used in the AM14 ELISA, detected with an HRP-labeled secondary antibody
With B1 the “AM14 prefusion content (%), relative to standard” value [7] was 75%, the “AM14 prefusion content (%), relative to standard” value [8] was 101% and the “AM14 prefusion content (%), relative to standard” value [9] was 93%. For the same molecule, the “AM14 prefusion content (%), relative to standard” value [10] was 59%, the “AM14 prefusion content (%), relative to standard” value [11] was 60% and the “AM14 prefusion content (%), relative to standard” value [12] was 70%. For the same molecule, the “AM14 prefusion content (%), relative to standard” value [13] was 104%, the “AM14 prefusion content (%), relative to standard” value [14] was 96% and the “AM14 prefusion content (%), relative to standard” value [15] was 98%. The “AM14 prefusion content (%), relative to standard” value [16] was 82% and the “AM14 prefusion content (%), relative to standard” value [17] was 88%.
